In series [1] the test system is MMT tumors. Nature of the series: MMT tumor growth in SCID mice. Particulars: H1H685P 12.5 mg/kg, VEGF Trap 5 mg/kg. It counts as in vivo. As for the experimental part:
To provide additional evidence of combination efficacy, the effect of the H1H685P+VEGF Trap combination on the growth of MMT tumors was assessed. 0.5×10^6 MMT cells were implanted subcutaneously into the right hind flank of 6-8 week-old female SCID mice. […] The Fc and H1H685P groups were given 3 doses over 9 days. The VEGF Trap and combination groups were given 4 doses over 12 days. Tumor volumes were measured twice per week over the course of the experiment and tumor weights were measured upon excision of tumors at the end of the experiment (due to their large size, tumors from the Fc and H1H685P groups were collected 3 days before tumors from the VEGF Trap and combination groups). Averages (mean+/−standard deviation) of tumor growth from the beginning of treatment and of tumor weight were calculated for each group. Percent decrease of tumor weight and growth are calculated from comparison to the Fc control group.

The target in series [2] is T1, hAng-2FD-mFc Y-475-H (Homo sapiens, UniProt O15123, Y475H).
T1 construct: made in house
Put plainly: Ang-2FD-mFc point mutant binding experiment (SPR), Y-475-H. To be noted: Y-475-H mutant captured; antibody/peptibody at 100 nM; 25° C. The source says:
To further characterize binding between hAng2 and anti-hAng2 mAbs of the invention, seven variant hAng2-FD-mFc proteins were generated, each containing a single point mutation. Amino acids selected for mutation were based on the difference in sequence between hAng-2 and hAng-1 in the region that interacts with hTie-2 (FIG. 1). In particular, amino acids within the fibrinogen-like domain (FD) of Ang-2 which are believed to interact with Tie-2 based on crystal structure analysis, but which differ from the corresponding amino acid in Ang-1, were individually mutated to the corresponding hAng-1 residue. The results of this example indicate the amino acid residues of hAng-2 with which the Ang-2 preferential binding antibodies interact.
In this experiment, each of the seven hAng-2FD-mFc mutant proteins were captured (˜147-283 RU) on an anti-mouse-Fc surface created through direct chemical coupling to a BIACORE™ chip. Then each Ang-2 antibody (or peptibody, as the case may be) at 100 nM was injected over the captured mFc-tagged hAng-2FD protein surface at a flowrate of 50 μl/min for 180 sec, and the dissociation of variant hAng2-FD-mFc and antibody was monitored in real time for 20 min at 25° C.

Series [3] has as its system advanced solid tumor malignancies. Put plainly: Ascending, multiple-dose clinical trial of intravenously administered mAb1 in patients with advanced cancer. It counts as in vivo. As for the experimental part: This study was an open-label, ascending, multiple-dose study of mAb1 administered as an intravenous (IV) infusion (30 minutes) at doses of 1, 3, 6, 12 or 20 mg/kg once every 2 weeks. The study was conducted in patients with advanced solid tumor malignancies who have failed conventional therapy. The purpose of the study was to explore the safety, recommended dose (RD), pharmacokinetics (PK), pharmacodynamics (PD) and anti-tumor activity of mAb1 (also known as “H1H685P”).
Patients were screened to determine eligibility within 28 days prior to the first dose administration. Three patients were assigned to each of the five sequential cohorts (1, 3, 6, 12 or 20 mg/kg). Patients received mAb1 as a 30 minute IV infusion on Days 1 and 15 of each 4-week cycle (28 days). The dose of mAb1 was escalated until the recommended dose was determined, based on safety, tolerability, PK, PD testing and/or maximum tolerated dose (MTD). The MTD is defined as the highest dose at which less than 33% of patients experience dose-limiting toxicity (DLT) during the first cycle of therapy.
Six dose levels were planned for studying dose escalation. Starting at dose 1, a minimum of 3 patients was entered at each dose level. […] If no further cycle 1 DLT was observed, dose escalation proceeded to the next dose level. If two or more patients experienced a cycle 1 DLT, dose escalation was stopped and the previous lower dose level was expanded to 6 patients. Once the RD was determined, up to 10 additional patients were enrolled to evaluate safety and other biological/clinical effects. A separate cohort was planned for patients with hepatocellular carcinoma (HCC) where up to 10 patients were enrolled based on the eligibility criteria (listed below).
A DLT is defined by any of the following treatment-related events occurring during the first cycle (28 days) of study treatment: (1) Hematologic toxicity as evidenced by (a) Grade 3 or 4 neutropenia complicated by fever 38.5° C. or infection; (b) Grade 4 neutropenia of at least 7 days duration; (c) Grade 3 thrombocytopenia complicated by hemorrhage; or (d) Grade 4 thrombocytopenia; and/or (2) Non-hematologic toxicity as evidenced by (a) any Grade 4 non-hematologic toxicity; or (b) Grade 3 non-hematologic toxicities except fatigue, anorexia, nausea, vomiting or diarrhea that can be controlled by medication. Grade 3 laboratory changes that reflected tumor burden were not considered as DLT.
Safety was assessed throughout the study by monitoring Adverse Events and Serious Adverse Events.
For tumor assessment, a CT or MRI was performed at the screening visit (within 28 days prior to infusion) and during every even-numbered cycle (eg cycles 2, 4, 6, 8) between days 15 and 28 and when disease progression was suspected. Tumor assessment was performed according to Response Evaluation Criteria in Solid Tumors version 1.1 (RECIST version 1.1). RECIST criteria are developed to facilitate objective assessment of change in tumor burden such as tumor shrinkage and time to development of disease progression. RECIST guidelines are posted on the worldwide web at http://ctep(dot)cancer(dot)gov(slash)protocoldevelopment(slash)docs(slash)recist_guideline(dot)pdf. Tumor marker assessments were also collected, when available.
Blood samples were collected for RNA, serum cytokine testing, molecular profiling, anti-drug antibody (ADA) and serum mAb1 levels at screening and post-infusion on days 1, 2, 3, 8, 15 and 22 of cycle 1, and on day 1 of subsequent cycles. Tumor biopsies were obtained for immunohistochemistry studies for Ang-2. Results were scored as positive for Ang-2 in association with expression of endothelial cell CD31.

Results on one substance are retold here after US9926369B2, “Methods for treating hepatocellular cancer by administering an anti-Ang-2 antibody” (Regeneron Pharmaceuticals, Inc., priority 2009, dated 2018).

T1 sequence (O15123 with tags, fused parts or gaps Y475H): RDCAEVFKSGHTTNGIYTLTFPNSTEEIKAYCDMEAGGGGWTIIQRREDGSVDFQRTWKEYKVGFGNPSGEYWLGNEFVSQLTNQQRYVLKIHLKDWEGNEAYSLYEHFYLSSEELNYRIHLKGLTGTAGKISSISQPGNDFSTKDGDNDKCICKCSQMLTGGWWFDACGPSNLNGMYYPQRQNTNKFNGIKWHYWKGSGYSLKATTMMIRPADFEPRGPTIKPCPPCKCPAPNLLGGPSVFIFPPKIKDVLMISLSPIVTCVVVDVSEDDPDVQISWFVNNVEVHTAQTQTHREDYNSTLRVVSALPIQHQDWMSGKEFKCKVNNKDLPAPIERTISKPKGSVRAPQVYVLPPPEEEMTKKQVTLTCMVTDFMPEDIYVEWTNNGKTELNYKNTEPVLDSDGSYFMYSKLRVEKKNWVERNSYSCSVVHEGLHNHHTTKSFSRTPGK

In general, Kd refers to a measure of binding affinity in units of concentration. Lower therefore signals tighter binding. For “H1H685P: human anti-Ang-2 antibody, HCVR/LCVR SEQ ID NOs 18/20; also referred to as mAb1 [Antibody H1H685P]”, in series [1], the “% Decrease in Tumor Growth” value turned out to be 15%, the “% Decrease in Tumor Weight” value is 11%, the “Avg Tumor Growth” value turned out to be 1135 ± 306 mm^3 and the “Avg Tumor Weight” value is 1.409 ± 0.314 g. For the same substance, in series [2], binding was characterised by a dissociation constant (Kd) of 0.196 nM and the RU is 181.53 RU. The “Positive ADA detected” value in series [3] (3 mg/kg) was 1 patient. In addition, the “Confirmed sustained patient response (PR), duration” value in series [3] (1 patient with adrenocortical cancer treated at 1 mg/kg) came to 16 wks. Besides, the “Stable disease (SD), patients evaluable for efficacy” value in series [3] (17 of 32 patients) was determined as 53%. Also, the “Total circulating serum Ang2 levels following treatment” value in series [3] (all cohorts) is reported as “saturated”. Besides, in series [3] (human, in vivo, iv), the “Maximum tolerated dose (MTD)” value is reported as “not reached”. The “Stable disease (SD), duration” value in series [3] (one patient with thyroid cancer) came out at 46 weeks. For the same substance, in series [3] (patients), the “Treatment-related adverse events (G½): abdominal distension” value was found to be 11%, the “Treatment-related adverse events (G½): decreased appetite” value was 11%, the “Treatment-related adverse events (G½): diarrhea” value amounted to 14% and the “Treatment-related adverse events (G½): fatigue” value was 19%. In addition, in series [3] (patients), the “Treatment-related adverse events (G½): peripheral edema” value is 17% and the “≥Grade 3 TRAEs” value is recorded as “no ≥Grade 3 TRAEs”. The “Stable disease (SD), duration range” value in series [3] (patients evaluable for efficacy) is on record as 3.3-46.8 weeks. For the same substance, the Tolerability entry in series [3] (patients with advanced cancer) is listed as “generally well tolerated”. Also, the “Dose-limiting toxicities (DLTs)” value in series [3] (patients, 1, 3, 6, 12 and 20 mg/kg IV every 2 weeks) was “No DLTs”. The “Pharmacokinetics (PK) across all dose levels” value in series [3] (patients, IV) was “linear and dose-proportional”.
